Test results taken from patent US9029097 (UNIVERSITE DE MONTREAL, dated 2015).

Target: T1, β2AR-GFP10 (human, UniProt P07550 1-413)
T1 construct: whole, on cells; Expressed in HEK293T cells; also called GFP tagged-β2 adrenergic receptor; not shown: GFP10, variant of GFP
Assay: BRET2 kinetics, living cells, 10 µM Iso up to 4 min

B1: QL-Gαi1-122Rluc (other)
chain: MGCTLSAEDKAAVERSKMIDRNLREDGEKAAREVKLLLLGAGESGKSTIVKQMKIIHEAGYSEEECKQYKAVVYSNTIQSIIAIIRAMGRLKIDFGDSARADDARQLFVLAGAAEEGFMTAESGGGGSMTSKVYDPEQRKRMITGPQWWARCKQMNVLDSFINYYDSEKHAENAVIFLHGNAASSYLWRHVVPHIEPVARCIIPDLIGMGKSGKSGNGSYRLLDHYKYLTAWFELLNLPKKIIFVGHDWGACLAFHYSYEHQDKIKAIVHAESVVDVIESWDEWPDIEEDIALIKSEEGEKMVLENNFFVETMLPSKIMRKLEPEEFAAYLEPFKEKGEVRRPTLSWPREIPLVKGGKPDVVQIVRNYNAYLRASDDLPKMFIESDPGFFSNAIVEGAKKFPNTEFVKVKGLHFSQEDAPDEMGKYIKSFVERVLKNEQSGGGGSLAGVIKRLWKDSGVQACFNRSREYQLNDSAAYYLNDLDRIAQPNYIPTQQDVLRTRVKTTGIVETHFTFKDLHFKMFDVGGLRSERKKWIHCFEGVTAIIFCVALSDYDLVLAEDEEMNRMHESMKLFDSICNNKWFTDTSIILFLNKKDLFEEKIKKSPLTICYPEYAGSNTYEEAAAYIQCQFEDLNKRKDTKEIYTHFTCATDTKNVQFVFDAVTDVIIKNNLKDCGLF
notes: unable to hydrolyse GTP; also called Rluc-tagged constitutively active Q204L-Gαi1 mutant
B1: binds.
